Source: US20240301049A1 (Ablynx, published 2024)
Several values for one entry are separate records, joined by “and”; a condition that tells them apart may be missing. Equal values may be shown once.

Key:
[1] = target: T1, human TL-1A (human, UniProt O95150 72-251); assay: SPR (ProteOn XPR36), target immobilized
T1 construct: also called hTL-1A
T1 sequence (looked up): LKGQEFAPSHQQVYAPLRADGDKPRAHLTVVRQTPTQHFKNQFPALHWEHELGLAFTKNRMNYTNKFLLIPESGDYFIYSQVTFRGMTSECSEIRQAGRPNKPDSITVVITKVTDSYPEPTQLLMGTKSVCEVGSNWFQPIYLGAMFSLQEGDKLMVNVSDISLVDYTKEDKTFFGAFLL

[2] = target: T2, human CNTF (human, UniProt P26441 2-200); assay: SPR (ProteOn XPR36), target immobilized
T2 construct: also called ciliary neurotrophic factor
T2 sequence (looked up): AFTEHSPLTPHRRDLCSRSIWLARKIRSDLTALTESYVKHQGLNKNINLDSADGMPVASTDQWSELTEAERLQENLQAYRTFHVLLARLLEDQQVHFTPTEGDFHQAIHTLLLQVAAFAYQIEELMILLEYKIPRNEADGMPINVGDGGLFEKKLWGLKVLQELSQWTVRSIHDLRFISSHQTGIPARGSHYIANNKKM

[3] = target: T3, human IL23 (human, UniProt Q9NPF7 20-189; P29460 23-328); assay: SPR (ProteOn XPR36), target immobilized
T3 sequence (looked up) 1: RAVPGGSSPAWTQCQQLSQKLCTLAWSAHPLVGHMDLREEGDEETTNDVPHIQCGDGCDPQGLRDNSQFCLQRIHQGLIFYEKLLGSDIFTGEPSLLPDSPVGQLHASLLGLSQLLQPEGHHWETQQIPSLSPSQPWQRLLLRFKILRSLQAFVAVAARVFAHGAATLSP
T3 sequence (looked up) 2: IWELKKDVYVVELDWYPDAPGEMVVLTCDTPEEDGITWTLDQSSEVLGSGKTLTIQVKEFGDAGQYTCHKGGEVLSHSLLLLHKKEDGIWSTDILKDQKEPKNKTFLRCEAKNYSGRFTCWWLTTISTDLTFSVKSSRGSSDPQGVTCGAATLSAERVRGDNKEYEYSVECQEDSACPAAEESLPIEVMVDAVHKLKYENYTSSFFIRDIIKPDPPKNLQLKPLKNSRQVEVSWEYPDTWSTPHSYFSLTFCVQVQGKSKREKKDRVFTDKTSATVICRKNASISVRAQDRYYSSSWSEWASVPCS

[4] = target: T4, human FASL (human, UniProt P48023 134-281, limits assumed); assay: SPR (ProteOn XPR36), target immobilized
T4 construct: also called hFASL
T4 sequence (looked up): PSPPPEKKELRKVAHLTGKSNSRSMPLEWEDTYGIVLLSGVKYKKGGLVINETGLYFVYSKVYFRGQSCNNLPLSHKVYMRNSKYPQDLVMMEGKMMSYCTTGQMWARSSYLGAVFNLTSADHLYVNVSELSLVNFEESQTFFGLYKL

[5] = target: T5, human RANKL (human, UniProt O14788 140-317, limits assumed); assay: SPR (ProteOn XPR36), target immobilized
T5 construct: also called hRANKL
T5 sequence (looked up): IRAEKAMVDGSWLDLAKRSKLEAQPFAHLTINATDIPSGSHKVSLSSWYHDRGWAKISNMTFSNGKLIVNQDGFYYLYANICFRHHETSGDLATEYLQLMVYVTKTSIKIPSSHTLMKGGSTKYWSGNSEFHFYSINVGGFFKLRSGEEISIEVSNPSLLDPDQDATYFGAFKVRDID

[6] = target: T6, human IL11 (human, UniProt P20809 22-199); assay: SPR (ProteOn XPR36), target immobilized
T6 sequence (looked up): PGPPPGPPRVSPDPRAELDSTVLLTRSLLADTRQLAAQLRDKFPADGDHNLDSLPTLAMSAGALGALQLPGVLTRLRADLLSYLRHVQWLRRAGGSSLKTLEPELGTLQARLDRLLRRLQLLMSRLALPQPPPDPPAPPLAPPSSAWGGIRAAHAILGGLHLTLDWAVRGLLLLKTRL

[7] = target: T7, human IL27 (human, UniProt Q8NEV9 29-243; Q14213 21-229); assay: SPR (ProteOn XPR36), target immobilized
T7 sequence (looked up) 1: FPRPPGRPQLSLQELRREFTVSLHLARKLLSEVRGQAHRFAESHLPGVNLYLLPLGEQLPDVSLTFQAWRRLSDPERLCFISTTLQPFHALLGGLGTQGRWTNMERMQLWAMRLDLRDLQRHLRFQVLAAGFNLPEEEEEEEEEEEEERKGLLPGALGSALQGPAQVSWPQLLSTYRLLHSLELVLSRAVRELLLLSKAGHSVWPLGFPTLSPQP
T7 sequence (looked up) 2: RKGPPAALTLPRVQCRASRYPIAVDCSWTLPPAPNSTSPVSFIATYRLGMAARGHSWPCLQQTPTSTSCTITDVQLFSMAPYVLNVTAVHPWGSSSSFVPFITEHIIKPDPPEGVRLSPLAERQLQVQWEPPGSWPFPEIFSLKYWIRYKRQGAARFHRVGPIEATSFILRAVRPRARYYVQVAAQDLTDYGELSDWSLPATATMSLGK

[8] = target: T8, human CD30L (human, UniProt P32971 63-234, limits assumed); assay: SPR (ProteOn XPR36), target immobilized
T8 sequence (looked up): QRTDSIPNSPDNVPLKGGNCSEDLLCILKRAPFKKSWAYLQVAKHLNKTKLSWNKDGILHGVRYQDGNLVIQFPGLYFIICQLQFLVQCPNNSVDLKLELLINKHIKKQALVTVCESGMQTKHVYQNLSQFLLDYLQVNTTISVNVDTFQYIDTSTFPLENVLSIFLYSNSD

[9] = target: human TRAIL (human, UniProt P50591 114-281, limits assumed); assay: SPR (ProteOn XPR36), target immobilized
Sequence of human TRAIL (P50591 114-281 limits assumed): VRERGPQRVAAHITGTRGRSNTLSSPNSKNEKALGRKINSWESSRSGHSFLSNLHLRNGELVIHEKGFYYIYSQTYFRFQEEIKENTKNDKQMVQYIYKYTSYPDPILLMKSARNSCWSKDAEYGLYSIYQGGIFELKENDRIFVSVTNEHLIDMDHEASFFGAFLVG

[10] = target: T9, human LIGHT (human, UniProt O43557 74-240, limits assumed); assay: SPR (ProteOn XPR36), target immobilized
T9 construct: also called hLIGHT
T9 sequence (O43557 74-240 limits assumed): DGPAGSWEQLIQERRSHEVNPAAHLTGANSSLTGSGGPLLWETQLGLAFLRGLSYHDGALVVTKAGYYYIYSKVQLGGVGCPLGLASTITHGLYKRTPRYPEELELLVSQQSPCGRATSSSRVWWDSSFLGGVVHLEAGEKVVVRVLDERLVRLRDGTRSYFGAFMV

[11] = target: T10, human membrane TNFα expressed on HEK293H cells (human, UniProt P01375 1-233); assay: flow cytometry, HEK293H cells expressing human membrane TNFα, with 30 µM HSA, 24 h
T10 construct: whole, on cells; also called membrane expressed TNFα
T10 sequence (P01375 whole entry): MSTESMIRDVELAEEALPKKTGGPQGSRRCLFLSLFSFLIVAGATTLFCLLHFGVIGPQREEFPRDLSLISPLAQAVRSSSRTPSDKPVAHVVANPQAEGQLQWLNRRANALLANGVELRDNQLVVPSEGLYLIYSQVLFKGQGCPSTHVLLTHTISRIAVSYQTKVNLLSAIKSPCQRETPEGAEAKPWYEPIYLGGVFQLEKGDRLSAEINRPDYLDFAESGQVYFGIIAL
Procedure: Briefly, cells were fixed with 4% paraformaldehyde and 0.1% glutaraldehyde in PBS (to increase detection of membrane bound TNFα). […] Cells were washed 3 times and subsequently incubated with an anti-VHH mAb (ABH00119) for 30 min at 4° C., washed again, and incubated for 30 min at 4° C. with a goat anti-mouse or anti-human PE labeled antibody. Samples were washed and resuspended in FACS Buffer (D-PBS with 10% FBS and 0.05% sodium azide supplemented with 5 nM TOPRO3). Cell suspensions were then analyzed on an iQuescreener. EC50 values were calculated using GraphPad Prism.

B1: F027201062 (bispecific antibody)
chain: DVQLVESGGGVVQPGGSLRLSCAASGRTFSNYAMAWFRQAPGKEREFVAVISYAGGRTYYADSVKGRFTISRDNAKNTVYLQMNSLRPEDTALYYCAAVDSPLIATHPRGYDYWGQGTLVTVSSGGGGSGGGSEVQLVESGGGVVQPGGSLRLSCAASGFTFRSFGMSWVRQAPGKGPEWVSSISGSGSDTLYADSVKGRFTISRDNSKNTLYLQMNSLRPEDTALYYCTIGGSLSRSSQGTLVTVSSGGGGSGGGSEVQLVESGGGVVQPGGSLRLSCAASGFTLAYYAIGWFRQAPGKEREGVSCISGSVGTTYYADSVKGRFTISRDNAKNTVYLQMNSLRPEDTALYYCVRSSWFDCGVQGRDLGNEYDYRGQGTLVTVSSGGGGSGGGSEVQLVESGGGVVQPGGSLRLSCTASGFTFSTADMGWFRQAPGKGREFVARISGIDGTTYYDEPVKGRFTISRDNSKNTVYLQMNSLRPEDTALYYCRSPRYADQWSAYDYWGQGTLVKVSSA
notes: anti-IL-6 (17C04, 6B12), anti-HSA (ALB23002), anti-TNF-α (6C11), C-terminal alanine; produced in Pichia pastoris; also called ISVD construct F027201062; Nanobody F027201062
binding result [1]: no binding (tested: 300 nM)
binding result [2]: no binding (tested: 300 nM)
binding result [3]: no binding (tested: 300 nM)
binding result [4]: no binding (tested: 300 nM)
binding result [5]: no binding (tested: 300 nM)
binding result [6]: no binding (tested: 300 nM)
binding result [7]: no binding (tested: 300 nM)
binding result [8]: no binding (tested: 300 nM)
binding result [9]: no binding (tested: 300 nM)
binding result [10]: no binding (tested: 300 nM)
EC50 [11]: 0.31 nM and 0.29 nM and 0.36 nM
